Experimental data reported in article PMC3509434.

Tests used:
[1] = biological target: soluble gB truncated at amino acid 739, gB(739t) (herpes simplex virus 1 (HSV-1), strain KOS) (UniProt P06437); assay: SEC
[2] = biological target: soluble gB truncated at amino acid 739, gB(739t) (herpes simplex virus 1 (HSV-1), strain KOS) (UniProt P06437); assay: native gel or EMSA
[3] = biological target: soluble gB truncated at amino acid 759, gB(759t) (herpes simplex virus 1 (HSV-1), strain KOS) (UniProt P06437); assay: SEC
[4] = biological target: soluble gB truncated at amino acid 759, gB(759t) (herpes simplex virus 1 (HSV-1), strain KOS) (UniProt P06437); assay: native gel or EMSA
[5] = biological target: soluble gB truncated at amino acid 730, gB(730t) (herpes simplex virus 1 (HSV-1)) (UniProt P06437); assay: SEC
[6] = biological target: soluble gB truncated at amino acid 749, gB(749t) (herpes simplex virus 1 (HSV-1), strain KOS) (UniProt P06437); assay: SEC
[7] = biological target: soluble gB truncated at amino acid 749, gB(749t) (herpes simplex virus 1 (HSV-1), strain KOS) (UniProt P06437); assay: native gel or EMSA
[8] = biological target: soluble gB truncated at amino acid 773, gB(773t) (herpes simplex virus 1 (HSV-1), strain KOS) (UniProt P06437); assay: SEC
[9] = biological target: soluble gB truncated at amino acid 773, gB(773t) (herpes simplex virus 1 (HSV-1), strain KOS) (UniProt P06437); assay: native gel or EMSA

soluble gB truncated at amino acid 739, gB(739t) (from UniProt P06437 31-739) (domain or fragment)
stoichiometry N [1]: 3
stoichiometry N [2]: 3

soluble gB truncated at amino acid 759, gB(759t) (from UniProt P06437 31-759) (domain or fragment)
stoichiometry N [3]: 3
stoichiometry N [4]: 3

soluble gB truncated at amino acid 730, gB(730t) (from UniProt P06437 31-730) (domain or fragment)
stoichiometry N [5]: 3

soluble gB truncated at amino acid 749, gB(749t) (from UniProt P06437 31-749) (domain or fragment)
stoichiometry N [6]: 3
stoichiometry N [7]: 3

soluble gB truncated at amino acid 773, gB(773t) (from UniProt P06437 31-773) (domain or fragment)
stoichiometry N [8]: 3
stoichiometry N [9]: 3
